The values below come from the Immune Epitope Database (IEDB).

In assay [1] the target is HLA-A*01:01. Nature of the assay: IEDB peptide-MHC binding, purified MHC/competitive/radioactivity; ≥ and ≤ were set here for values at or beyond the usual limits of such assays. Conditions: source organism: Homo sapiens.
The next assay concerns the target HLA-B*14:02. Put plainly: IEDB peptide-MHC binding, purified MHC/competitive/fluorescence; ≥ and ≤ were set here for values at or beyond the usual limits of such assays. The conditions noted are these: source organism: Horsepox virus.
Another assay concerns the target HLA-B*45:06. Put plainly: IEDB peptide-MHC binding, purified MHC/competitive/fluorescence; filed as Kd, often an IC50 or EC50 that approximates it; ≥ and ≤ were set here for values at or beyond the usual limits of such assays. Conditions: source organism: Vaccinia virus WR.
The target of a further assay is HLA-A*32:15. The description is as above. The conditions noted are these: source organism: Vaccinia virus WR.
The target in another assay is HLA-B*39:01. Described as above. The conditions noted are these: source organism: Vaccinia virus WR.
For a further assay, the target named is HLA-B*15:09. Described as above. The conditions noted are these: source organism: Vaccinia virus WR.
Another assay has as its target HLA-B*15:42. The description is as above. Conditions: source organism: Vaccinia virus WR.
The target in a further assay is HLA-A*68:23. Described as above. Conditions: source organism: Vaccinia virus WR.
A further assay concerns the target HLA-C*05:01. Nature of the assay: IEDB peptide-MHC binding, purified MHC/direct/fluorescence; filed as Kd, often an IC50 or EC50 that approximates it; ≥ and ≤ were set here for values at or beyond the usual limits of such assays. Conditions: source organism: Vaccinia virus WR.
In assay [2] the target is HLA-B*57:01. Described as above. Conditions: source organism: Camelpox virus CMS.
For another assay, the target named is HLA-B*15:17. Described as above. Conditions: source organism: Camelpox virus CMS.
The target in a further assay is HLA-A*02:01. The assay is described as above. The conditions noted are these: source organism: Camelpox virus CMS.
The target in another assay is HLA-B*40:01. Described as above. Conditions: source organism: Camelpox virus CMS.
The target of another assay is HLA-B*08:01. The description is as above. The conditions noted are these: source organism: Variola virus.
In another assay the target is HLA-B*58:01. The assay is described as above. The conditions noted are these: source organism: Camelpox virus CMS.
Another assay concerns the target HLA-A*26:01. The assay is described as above. The conditions noted are these: source organism: Variola virus.
Assay [3] deals with HLA-B*18:01. Described as above. Conditions: source organism: Camelpox virus CMS.
Assay [4] addresses HLA-B*15:01. Described as above. The conditions noted are these: source organism: Camelpox virus CMS.
The target of the next assay is HLA-A*69:01. Described as above. Conditions: source organism: Camelpox virus CMS.
The target of another assay is HLA-B*51:01. Described as above. Conditions: source organism: Camelpox virus CMS.
Another assay addresses HLA-A*31:01. The assay is described as above. The conditions noted are these: source organism: Camelpox virus CMS.
A further assay deals with HLA-B*07:02. The assay is described as above. Conditions: source organism: Camelpox virus CMS.
In a further assay the target is HLA-A*03:01. Described as above. The conditions noted are these: source organism: Camelpox virus CMS.
A further assay deals with HLA-B*08:02. Described as above. The conditions noted are these: source organism: Variola virus.
The target in assay [5] is HLA-A*11:01. The description is as above. The conditions noted are these: source organism: Camelpox virus CMS.
Assay [6] has as its target HLA-A*01:01. The assay is described as above. Conditions: source organism: Camelpox virus CMS.
In a further assay the target is HLA-B*48:01. The description is as above. The conditions noted are these: source organism: Camelpox virus CMS.
A further assay deals with HLA-B*27:05. The description is as above. Conditions: source organism: Camelpox virus CMS.
The next assay addresses HLA-B*46:01. The assay is described as above. Conditions: source organism: Camelpox virus CMS.
In assay [7] the target is HLA-B*57:01. Put plainly: IEDB peptide-MHC binding, purified MHC/competitive/fluorescence; filed as Kd, often an IC50 or EC50 that approximates it; ≥ and ≤ were set here for values at or beyond the usual limits of such assays. The conditions noted are these: source organism: Human immunodeficiency virus 1.
The target in another assay is HLA-A*26:02. Described as above. Conditions: source organism: Human immunodeficiency virus 1.
The target in the next assay is HLA-B*35:01. The assay is described as above. The conditions noted are these: source organism: Human immunodeficiency virus 1.
The next assay deals with HLA-A*02:06. The description is as above. The conditions noted are these: source organism: Human immunodeficiency virus 1.
In assay [8] the target is HLA-B*18:01. The description is as above. The conditions noted are these: source organism: Human immunodeficiency virus 1.
For assay [9], the target named is HLA-B*15:01. The assay is described as above. The conditions noted are these: source organism: Human immunodeficiency virus 1.
The target of the next assay is HLA-A*02:03. The assay is described as above. The conditions noted are these: source organism: Human immunodeficiency virus 1.
The target in another assay is HLA-A*30:01. The assay is described as above. The conditions noted are these: source organism: Human immunodeficiency virus 1.
The target in assay [10] is HLA-A*11:01. The description is as above. Conditions: source organism: Human immunodeficiency virus 1.
Assay [11] deals with HLA-A*01:01. The assay is described as above. Conditions: source organism: Human immunodeficiency virus 1.

pIC50, pKd: −log10 of the molar value.

Broadly, the pIC50 is −log10 of the IC50, conventionally taken in molar units. Turning to IVDSLTEMY, the pIC50 with HLA-A*01:01 [1] was 8.15.

The pKd is the Kd on a negative log10 scale, so that one unit is a factor of ten. Low values mean a large Kd, high ones a small Kd. In the case of MPAYIRNTL, in the assay with HLA-B*14:02, the pIC50 was 6.34. Further, the pKd with HLA-B*45:06 was at most 5.30; with HLA-A*32:15 it was 7.20; with HLA-B*39:01 it was 7.44; with HLA-B*15:09, at most 4.70; with HLA-B*15:42 it was at most 5.30; with HLA-A*68:23, 9.05. Further, the pKd was at most 4.70 in the assay with HLA-C*05:01; at most 4.70 with HLA-B*57:01 [2]; at most 4.70 with HLA-B*15:17; at most 4.70 in the assay with HLA-A*02:01; at most 4.70 in the assay with HLA-B*40:01; 8.10 with HLA-B*08:01. In addition, the pKd in the assay with HLA-B*58:01 is at most 4.70; in the assay with HLA-A*26:01, 5.16; in the assay with HLA-B*18:01 [3], 5.55; with HLA-B*15:01 [4] it was at most 4.70; with HLA-A*69:01 it was at least 9.00; with HLA-B*51:01 it was 6.17. Further, the pKd with HLA-A*31:01 was at most 4.70; with HLA-B*07:02, 8.18; with HLA-A*03:01, at most 4.70; with HLA-B*08:02, 5.86; in the assay with HLA-A*11:01 [5] it was at most 4.70; in the assay with HLA-A*01:01 [6], at most 4.70. The pKd with HLA-B*48:01 is 5.82; in the assay with HLA-B*27:05 it was at most 4.70; with HLA-B*46:01, at most 4.70.

Turning to RSLFNTVAVLY, the pKd was 6.17 in the assay with HLA-B*57:01 [7]; 5.51 with HLA-A*26:02; 6.41 with HLA-B*35:01; 6.02 with HLA-A*02:06; 6.44 in the assay with HLA-B*18:01 [8]; 6.04 with HLA-B*15:01 [9]. Further, the pKd with HLA-A*02:03 is 6.19; with HLA-A*30:01, 5.53; in the assay with HLA-A*11:01 [10], 5.87; with HLA-A*01:01 [11], at most 4.70.
